# Reference: US20210246166A1 (Bayer, published 2021)
# Numbered stars: 1 amine (or outer) side, 2 acyl side, 3 side chain; on linkers, the order of the positions; unused ones are H or OH. Bridge positions count the residues as written; N and C are the ends. Square brackets hold non-standard residues; d marks the D form. Ends that are not written are not given here. Phe(2,3-F2) = (2S)-3-(2,3-difluorophenyl)-2-aminopropanoic acid, O=C([C@H](Cc1cccc(F)c1F)N[*:1])[*:2]; X3 = (1R,3S)‑3‑(Amino)cyclopentanecarboxylic acid, O=C([C@@H]1CC[C@H](N[*:1])C1)[*:2]; X4 = (1S,3R)‑3‑(Amino)cyclopentanecarboxylic acid, O=C([C@H]1CC[C@@H](N[*:1])C1)[*:2]; X9 = (S)‑3‑(1-Pyrrolidine-2-yl)‑propionic acid, O=C(CC[C@@H]1CCCN1[*:1])[*:2]; X8 = (R)‑4‑Amino‑6‑methylheptanoic acid, CC(C)C[C@@H](CCC(=O)[*:2])N[*:1]; X6 = (S)‑(1-Piperidin-3-yl)‑acetic acid, O=C(C[C@@H]1CCCN([*:1])C1)[*:2]; Ida = iminodiacetic acid, O=C(CN(CC(=O)[*:3])[*:1])[*:2]; His(τ-Bzl) = N[C@@H](Cc1cn(Cc2ccccc2)cn1)C(=O)O; Oic = O=C(O)[C@@H]1C[C@@H]2CCCC[C@@H]2N1; βPro(3S) = O=C([C@H]1CCN([*:1])C1)[*:2]; tBuAla = CC(C)(C)C[C@H](N)C(=O)O; (3-Me)H = L-3-methylhistidine; Pen = CC(C)(S)[C@H](N)C(=O)O; β3hP = O=C(O)C[C@@H]1CCCN1; NMeA = CN[C@@H](C)C(=O)O; Nva = CCC[C@H](N)C(=O)O; Sar = CNCC(=O)O
# T1: recombinant human MASP1 active protease (amino acids 297-699, C-terminal His Tag) (human, UniProt P48740 297-699)
# T1 sequence: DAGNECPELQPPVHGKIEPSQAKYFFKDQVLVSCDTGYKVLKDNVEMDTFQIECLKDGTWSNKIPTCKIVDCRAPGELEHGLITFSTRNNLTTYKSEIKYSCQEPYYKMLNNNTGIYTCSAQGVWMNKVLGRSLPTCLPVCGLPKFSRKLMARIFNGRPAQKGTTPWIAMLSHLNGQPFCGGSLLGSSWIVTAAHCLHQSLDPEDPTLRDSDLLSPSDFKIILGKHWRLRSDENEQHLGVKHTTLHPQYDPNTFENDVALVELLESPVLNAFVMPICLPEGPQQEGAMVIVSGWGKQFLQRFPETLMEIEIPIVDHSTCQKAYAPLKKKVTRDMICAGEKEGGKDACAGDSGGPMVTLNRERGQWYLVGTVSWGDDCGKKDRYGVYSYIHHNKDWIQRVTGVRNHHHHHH
# B1: Example 450: ((N-Me)G)-IC+SRSLP-(Oic)-I-(Pen)+IP-((R)-4-Amino-6-methylheptanoic acid)-OH (peptide)
# peptide: [Sar]ICSRSLP[Oic]I[Pen]IP[X8]-OH
# modifications: disulfide 3-11; N-terminus assumed
# SMILES: CC[C@H](C)[C@H](NC(=O)CNC)C(=O)N[C@H]1CSSC(C)(C)[C@@H](C(=O)N[C@H](C(=O)N2CCC[C@H]2C(=O)N[C@H](CCC(=O)O)CC(C)C)[C@@H](C)CC)NC(=O)[C@H]([C@@H](C)CC)NC(=O)[C@@H]2C[C@@H]3CCCC[C@@H]3N2C(=O)[C@@H]2CCCN2C(=O)[C@H](CC(C)C)NC(=O)[C@H](CO)NC(=O)[C@H](CCCNC(=N)N)NC(=O)[C@H](CO)NC1=O
# B2: Example 447: ((N-Me)G)-IC+SRS-((tBu)A)-PPI-(Pen)+IP-((1-Bn)H)-OH (peptide)
# peptide: [Sar]ICSRS[tBuAla]PPI[Pen]IP[His(τ-Bzl)]-OH
# modifications: disulfide 3-11; N-terminus assumed
# SMILES: CC[C@H](C)[C@H](NC(=O)CNC)C(=O)N[C@H]1CSSC(C)(C)[C@@H](C(=O)N[C@H](C(=O)N2CCC[C@H]2C(=O)N[C@@H](Cc2cn(Cc3ccccc3)cn2)C(=O)O)[C@@H](C)CC)NC(=O)[C@H]([C@@H](C)CC)NC(=O)[C@@H]2CCCN2C(=O)[C@@H]2CCCN2C(=O)[C@H](CC(C)(C)C)NC(=O)[C@H](CO)NC(=O)[C@H](CCCNC(=N)N)NC(=O)[C@H](CO)NC1=O
# B3: Example 440: ((N-Me)G)-IC+SRS-((2S)-3-(2,3-difluorophenyl)-2-aminopropanoic acid)-PPI-(Pen)+IP-NH2 (peptide)
# peptide: [Sar]ICSRS[Phe(2,3-F2)]PPI[Pen]IP-NH2
# modifications: disulfide 3-11; N-terminus assumed
# SMILES: CC[C@H](C)[C@H](NC(=O)CNC)C(=O)N[C@H]1CSSC(C)(C)[C@@H](C(=O)N[C@H](C(=O)N2CCC[C@H]2C(N)=O)[C@@H](C)CC)NC(=O)[C@H]([C@@H](C)CC)NC(=O)[C@@H]2CCCN2C(=O)[C@@H]2CCCN2C(=O)[C@H](Cc2cccc(F)c2F)NC(=O)[C@H](CO)NC(=O)[C@H](CCCNC(=N)N)NC(=O)[C@H](CO)NC1=O
# B4: Example 444: ((3-Me)H)-IC+SRSLP-(Oic)-I-(Pen)+IP-NH2 (peptide)
# peptide: [(3-Me)H]ICSRSLP[Oic]I[Pen]IP-NH2
# modifications: disulfide 3-11
# B5: Example 456: ((N-Me)G)-IC+SRSLP-(Oic)-I-(Pen)+IP-((S)-Pyrrolidine-3-carboxylic acid)-OH (peptide)
# peptide: [Sar]ICSRSLP[Oic]I[Pen]IP[βPro(3S)]-OH
# modifications: disulfide 3-11; N-terminus assumed
# SMILES: CC[C@H](C)[C@H](NC(=O)CNC)C(=O)N[C@H]1CSSC(C)(C)[C@@H](C(=O)N[C@H](C(=O)N2CCC[C@H]2C(=O)N2CC[C@H](C(=O)O)C2)[C@@H](C)CC)NC(=O)[C@H]([C@@H](C)CC)NC(=O)[C@@H]2C[C@@H]3CCCC[C@@H]3N2C(=O)[C@@H]2CCCN2C(=O)[C@H](CC(C)C)NC(=O)[C@H](CO)NC(=O)[C@H](CCCNC(=N)N)NC(=O)[C@H](CO)NC1=O
# B6: Example 454: ((N-Me)G)-IC+SRSLP-(Oic)-I-(Pen)+IPN-OH (peptide)
# peptide: [Sar]ICSRSLP[Oic]I[Pen]IPN-OH
# modifications: disulfide 3-11; N-terminus assumed
# SMILES: CC[C@H](C)[C@H](NC(=O)CNC)C(=O)N[C@H]1CSSC(C)(C)[C@@H](C(=O)N[C@H](C(=O)N2CCC[C@H]2C(=O)N[C@@H](CC(N)=O)C(=O)O)[C@@H](C)CC)NC(=O)[C@H]([C@@H](C)CC)NC(=O)[C@@H]2C[C@@H]3CCCC[C@@H]3N2C(=O)[C@@H]2CCCN2C(=O)[C@H](CC(C)C)NC(=O)[C@H](CO)NC(=O)[C@H](CCCNC(=N)N)NC(=O)[C@H](CO)NC1=O
# B7: Example 445: ((N-Me)A)-IC+SRS-((tBu)A)-P-((3R,6R)-1,1-Difluoro-5-azaspiro[2.4]heptane-6-carboxylic acid (enantiomer 2))-I-(Pen)+IP-NH2 (peptide)
# peptide: [NMeA]ICSRS[tBuAla]P[(3R,6R)‑1,1‑Difluoro‑5‑azaspiro(2.4)heptane‑6‑carboxylic acid (enantiomer 2)]I[Pen]IP-NH2
# modifications: disulfide 3-11
# B8: Example 452: ((N-Me)G)-IC+SRSLP-(Oic)-I-(Pen)+IP-((1S,3R)-3-(Amino)cyclopentanecarboxylic acid)-OH (peptide)
# peptide: [Sar]ICSRSLP[Oic]I[Pen]IP[X4]-OH
# modifications: disulfide 3-11; N-terminus assumed
# SMILES: CC[C@H](C)[C@H](NC(=O)CNC)C(=O)N[C@H]1CSSC(C)(C)[C@@H](C(=O)N[C@H](C(=O)N2CCC[C@H]2C(=O)N[C@@H]2CC[C@H](C(=O)O)C2)[C@@H](C)CC)NC(=O)[C@H]([C@@H](C)CC)NC(=O)[C@@H]2C[C@@H]3CCCC[C@@H]3N2C(=O)[C@@H]2CCCN2C(=O)[C@H](CC(C)C)NC(=O)[C@H](CO)NC(=O)[C@H](CCCNC(=N)N)NC(=O)[C@H](CO)NC1=O
# B9: Example 448: ((N-Me)G)-IC+RRS-((tBu)A)-PP-(Nva)-(Pen)+IP-NH2 (peptide)
# peptide: [Sar]ICRRS[tBuAla]PP[Nva][Pen]IP-NH2
# modifications: disulfide 3-11; N-terminus assumed
# SMILES: CCC[C@@H]1NC(=O)[C@@H]2CCCN2C(=O)[C@@H]2CCCN2C(=O)[C@H](CC(C)(C)C)NC(=O)[C@H](CO)NC(=O)[C@H](CCCNC(=N)N)NC(=O)[C@H](CCCNC(=N)N)NC(=O)[C@@H](NC(=O)[C@@H](NC(=O)CNC)[C@@H](C)CC)CSSC(C)(C)[C@@H](C(=O)N[C@H](C(=O)N2CCC[C@H]2C(N)=O)[C@@H](C)CC)NC1=O
# B10: Example 441: ((N-Me)G)-IC+SRS-((2S)-3-(2,3-difluorophenyl)-2-aminopropanoic acid)-P-(Oic)-I-(Pen)+IP-NH2 (peptide)
# peptide: [Sar]ICSRS[Phe(2,3-F2)]P[Oic]I[Pen]IP-NH2
# modifications: disulfide 3-11; N-terminus assumed
# SMILES: CC[C@H](C)[C@H](NC(=O)CNC)C(=O)N[C@H]1CSSC(C)(C)[C@@H](C(=O)N[C@H](C(=O)N2CCC[C@H]2C(N)=O)[C@@H](C)CC)NC(=O)[C@H]([C@@H](C)CC)NC(=O)[C@@H]2C[C@@H]3CCCC[C@@H]3N2C(=O)[C@@H]2CCCN2C(=O)[C@H](Cc2cccc(F)c2F)NC(=O)[C@H](CO)NC(=O)[C@H](CCCNC(=N)N)NC(=O)[C@H](CO)NC1=O
# B11: Example 446: ((N-Me)G)-IC+SRSLP-(Oic)-I-(Pen)+IP-(Ida)-OH (peptide)
# peptide: [Sar]ICSRSLP[Oic]I[Pen]IP[Ida]-OH
# modifications: disulfide 3-11
# B12: Example 455: ((N-Me)G)-IC+SRSLP-(Oic)-I-(Pen)+IP-(beta-homo-P)-OH (peptide)
# peptide: [Sar]ICSRSLP[Oic]I[Pen]IP[β3hP]-OH
# modifications: disulfide 3-11; N-terminus assumed
# SMILES: CC[C@H](C)[C@H](NC(=O)CNC)C(=O)N[C@H]1CSSC(C)(C)[C@@H](C(=O)N[C@H](C(=O)N2CCC[C@H]2C(=O)N2CCC[C@H]2CC(=O)O)[C@@H](C)CC)NC(=O)[C@H]([C@@H](C)CC)NC(=O)[C@@H]2C[C@@H]3CCCC[C@@H]3N2C(=O)[C@@H]2CCCN2C(=O)[C@H](CC(C)C)NC(=O)[C@H](CO)NC(=O)[C@H](CCCNC(=N)N)NC(=O)[C@H](CO)NC1=O
# B13: Example 449: ((N-Me)G)-IC+SRSLP-(Oic)-I-(Pen)+IP-((1R,3S)-3-(Amino)cyclopentanecarboxylic acid)-OH (peptide)
# peptide: [Sar]ICSRSLP[Oic]I[Pen]IP[X3]-OH
# modifications: disulfide 3-11; N-terminus assumed
# SMILES: CC[C@H](C)[C@H](NC(=O)CNC)C(=O)N[C@H]1CSSC(C)(C)[C@@H](C(=O)N[C@H](C(=O)N2CCC[C@H]2C(=O)N[C@H]2CC[C@@H](C(=O)O)C2)[C@@H](C)CC)NC(=O)[C@H]([C@@H](C)CC)NC(=O)[C@@H]2C[C@@H]3CCCC[C@@H]3N2C(=O)[C@@H]2CCCN2C(=O)[C@H](CC(C)C)NC(=O)[C@H](CO)NC(=O)[C@H](CCCNC(=N)N)NC(=O)[C@H](CO)NC1=O
# B14: Example 453: ((N-Me)G)-IC+SRSLP-(Oic)-I-(Pen)+IP-((S)-3-(1-Pyrrolidine-2-yl)-propionic acid)-OH (peptide)
# peptide: [Sar]ICSRSLP[Oic]I[Pen]IP[X9]-OH
# modifications: disulfide 3-11; N-terminus assumed
# SMILES: CC[C@H](C)[C@H](NC(=O)CNC)C(=O)N[C@H]1CSSC(C)(C)[C@@H](C(=O)N[C@H](C(=O)N2CCC[C@H]2C(=O)N2CCC[C@H]2CCC(=O)O)[C@@H](C)CC)NC(=O)[C@H]([C@@H](C)CC)NC(=O)[C@@H]2C[C@@H]3CCCC[C@@H]3N2C(=O)[C@@H]2CCCN2C(=O)[C@H](CC(C)C)NC(=O)[C@H](CO)NC(=O)[C@H](CCCNC(=N)N)NC(=O)[C@H](CO)NC1=O
# B15: Example 451: ((N-Me)G)-IC+SRSLP-(Oic)-I-(Pen)+IP-((S)-(1-Piperidin-3-yl)-acetic acid)-OH (peptide)
# peptide: [Sar]ICSRSLP[Oic]I[Pen]IP[X6]-OH
# modifications: disulfide 3-11; N-terminus assumed
# SMILES: CC[C@H](C)[C@H](NC(=O)CNC)C(=O)N[C@H]1CSSC(C)(C)[C@@H](C(=O)N[C@H](C(=O)N2CCC[C@H]2C(=O)N2CCC[C@@H](CC(=O)O)C2)[C@@H](C)CC)NC(=O)[C@H]([C@@H](C)CC)NC(=O)[C@@H]2C[C@@H]3CCCC[C@@H]3N2C(=O)[C@@H]2CCCN2C(=O)[C@H](CC(C)C)NC(=O)[C@H](CO)NC(=O)[C@H](CCCNC(=N)N)NC(=O)[C@H](CO)NC1=O
# B16: Example 443: ((N-Me)A)-IC+SRS-((tBu)A)-P-((3R,6R)-1,1-Difluoro-5-azaspiro[2.4]heptane-6-carboxylic acid (enantiomer 1))-I-(Pen)+IP-NH2 (peptide)
# peptide: [NMeA]ICSRS[tBuAla]P[(3R,6R)‑1,1‑Difluoro‑5‑azaspiro(2.4)heptane‑6‑carboxylic acid (enantiomer 1)]I[Pen]IP-NH2
# modifications: disulfide 3-11
# What was measured:
# [1] = target: T1, recombinant human MASP1 active protease …; assay: cell-based or functional assay
# [2] = target: recombinant human MASP2 active protease (amino acids 297-686, C-terminal His Tag) (human, UniProt O00187 297-686); assay: cell-based or functional assay
# recombinant human MASP2 active protease (amino acids 297-686, C-terminal His Tag), sequence (O00187 other isoform, or with tags, fused parts or gaps limits assumed): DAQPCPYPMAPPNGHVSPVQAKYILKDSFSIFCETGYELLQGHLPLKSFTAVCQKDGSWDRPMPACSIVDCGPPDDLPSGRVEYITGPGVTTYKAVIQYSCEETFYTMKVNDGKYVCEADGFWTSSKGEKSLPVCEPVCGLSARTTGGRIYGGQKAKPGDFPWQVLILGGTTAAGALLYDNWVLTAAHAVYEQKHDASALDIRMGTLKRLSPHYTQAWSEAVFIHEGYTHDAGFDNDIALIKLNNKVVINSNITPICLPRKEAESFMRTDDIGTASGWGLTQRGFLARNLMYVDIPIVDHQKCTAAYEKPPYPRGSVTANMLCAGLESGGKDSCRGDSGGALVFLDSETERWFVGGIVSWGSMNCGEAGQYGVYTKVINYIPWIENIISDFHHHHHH
Binder,human MASP1 IC50 [1] [nM],human MASP2 IC50 [2] [nM]
B1,5.8,230
B2,4.7,65.5
B3,18,26
B4,2.8,61
B5,1.9,110
B6,2,99
B7,3,300
B8,2,100
B9,440,1000
B10,65,220
B11,2.7,72
B12,2.9,85
B13,1.8,93
B14,2.5,56
B15,2.6,61
B16,0.78,74
